Data from US20240059789A1 (Janssen / Centocor, published 2024).

Assays:
[1] = biological target: Human PSMA on prostate cancer cell lines (C4-2B, 22RV1) (human, UniProt Q04609 1-750); assay: cell-based or functional assay
[2] = biological target: Human CD3 on T cells / Jurkat cells (human, UniProt P07766 23-207); assay: cell-based or functional assay
Sequence of Human CD3 on T cells / Jurkat cells (P07766 23-207 limits assumed): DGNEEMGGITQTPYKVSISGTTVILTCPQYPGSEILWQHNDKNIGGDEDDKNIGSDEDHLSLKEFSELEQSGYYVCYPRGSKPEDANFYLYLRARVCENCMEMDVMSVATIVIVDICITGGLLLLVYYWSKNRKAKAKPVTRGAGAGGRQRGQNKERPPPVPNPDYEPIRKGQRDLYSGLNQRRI

Sequence of Human PSMA on prostate cancer cell lines (C4-2B, 22RV1) (Q04609 whole entry): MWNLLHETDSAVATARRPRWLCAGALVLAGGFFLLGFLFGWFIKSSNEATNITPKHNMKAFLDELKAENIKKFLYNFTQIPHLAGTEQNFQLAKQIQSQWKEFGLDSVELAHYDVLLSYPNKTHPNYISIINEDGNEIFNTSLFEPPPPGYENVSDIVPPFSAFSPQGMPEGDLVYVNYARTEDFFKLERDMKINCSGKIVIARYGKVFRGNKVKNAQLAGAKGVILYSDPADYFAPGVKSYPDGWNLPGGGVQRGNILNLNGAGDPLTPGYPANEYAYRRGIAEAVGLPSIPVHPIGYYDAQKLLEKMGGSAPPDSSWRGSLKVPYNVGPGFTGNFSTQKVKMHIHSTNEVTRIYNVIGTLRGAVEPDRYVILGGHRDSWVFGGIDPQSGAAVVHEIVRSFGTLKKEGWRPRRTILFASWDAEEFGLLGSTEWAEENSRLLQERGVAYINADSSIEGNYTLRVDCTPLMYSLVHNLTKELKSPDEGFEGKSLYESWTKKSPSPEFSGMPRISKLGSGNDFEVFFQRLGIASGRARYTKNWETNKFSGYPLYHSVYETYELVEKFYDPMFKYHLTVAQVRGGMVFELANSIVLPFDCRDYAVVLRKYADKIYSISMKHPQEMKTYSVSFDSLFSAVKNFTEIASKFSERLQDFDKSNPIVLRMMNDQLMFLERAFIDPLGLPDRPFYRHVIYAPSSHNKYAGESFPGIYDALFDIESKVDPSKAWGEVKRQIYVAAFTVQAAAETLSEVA

Binder | Tumor killing EC50 [M] (C4-2B + PAN-T cells, 72 h, flow cytometry) [1] | T cell activation EC50 [M] (CD25+ T cells, C4-2B co-culture, 72 h) [2]
PS3B919 (bispecific antibody, human IgG1, lambda, L234A L235A) heavy 1: QVQLQQSGPRLVRPSQTLSLTCAISGDSVFNNNAAWSWIRQSPSRGLEWLGRTYYRSKWLYDYAVSVKSRITVNPDTSRNQFTLQLNSVTPEDTALYYCARGYSSSFDYWGQGTLVTVSSASTKGPSVFPLAPSSKSTSGGTAALGCLVKDYFPEPVTVSWNSGALTSGVHTFPAVLQSSGLYSLSSVVTVPSSSLGTQTYICNVNHKPSNTKVDKKVEPKSCDKTHTCPPCPAPEAAGGPSVFLFPPKPKDTLMISRTPEVTCVVVSVSHEDPEVKFNWYVDGVEVHNAKTKPREEQYNSTYRVVSVLTVLHQDWLNGKEYKCKVSNKALPAPIEKTISKAKGQPREPQVYTLPPSREEMTKNQVSLTCLVKGFYPSDIAVEWESNGQPENNYKTTPPVLDSDGSFLLYSKLTVDKSRWQQGNVFSCSVMHEALHNHYTQKSLSLSPG light 1: QSALTQPASVSGSPGQSITISCTGTSSNIGTYKFVSWYQQHPDKAPKVLLYEVSKRPSGVSSRFSGSKSGNTASLTISGLQAEDQADYHCVSYAGSGTLLFGGGTKLTVLGQPKAAPSVTLFPPSSEELQANKATLVCLISDFYPGAVTVAWKADSSPVKAGVETTTPSKQSNNKYAASSYLSLTPEQWKSHRSYSCQVTHEGSTVEKTVAPTECS heavy 2: EVQLVESGGGLVQPGGSLRLSCAASGFTFSSYAMSWVRQAPGKGLEWVSAISGGIGSTYYADSVKGRFTISRDNSKNTLWLQMNSLRAEDTAVYYCAKDGVGATPYYFDYWGQGTLVTVSSASTKGPSVFPLAPSSKSTSGGTAALGCLVKDYFPEPVTVSWNSGALTSGVHTFPAVLQSSGLYSLSSVVTVPSSSLGTQTYICNVNHKPSNTKVDKKVEPKSCDKTHTCPPCPAPEAAGGPSVFLFPPKPKDTLMISRTPEVTCVVVSVSHEDPEVKFNWYVDGVEVHNAKTKPREEQYNSTYRVVSVLTVLHQDWLNGKEYKCKVSNKALPAPIEKTISKAKGQPREPQVYTLPPSREEMTKNQVSLTCLVKGFYPSDIAVEWESNGQPENNYKTTPPVLDSDGSFFLYSRLTVDKSRWQQGNVFSCSVMHEALHNHYTQKSLSLSPG light 2: QSVLTQPPSVSAAPGQKVTISCSGSSSNIGNNYVSWYQQLPGTAPKLLIYDNNKRPSGIPDRFSGSKSGTSATLGITGLQTGDEADYYCGTWDSSLSAYVFGTGTKVTVLGQPKAAPSVTLFPPSSEELQANKATLVCLISDFYPGAVTVAWKADSSPVKAGVETTTPSKQSNNKYAASSYLSLTPEQWKSHRSYSCQVTHEGSTVEKTVAPTECS | 2.1e-10 | 1.87e-10
PS3B912 (bispecific antibody, human IgG1, lambda, L234A L235A) heavy 1: QVQLQQSGPRLVRPSQTLSLTCAISGDSVFNNNAAWSWIRQSPSRGLEWLGRTYYRSKWLYDYAVSVKSRITVNPDTSRNQFTLQLNSVTPEDTALYYCARGYSSSFDYWGQGTLVTVSSASTKGPSVFPLAPSSKSTSGGTAALGCLVKDYFPEPVTVSWNSGALTSGVHTFPAVLQSSGLYSLSSVVTVPSSSLGTQTYICNVNHKPSNTKVDKKVEPKSCDKTHTCPPCPAPEAAGGPSVFLFPPKPKDTLMISRTPEVTCVVVSVSHEDPEVKFNWYVDGVEVHNAKTKPREEQYNSTYRVVSVLTVLHQDWLNGKEYKCKVSNKALPAPIEKTISKAKGQPREPQVYTLPPSREEMTKNQVSLTCLVKGFYPSDIAVEWESNGQPENNYKTTPPVLDSDGSFLLYSKLTVDKSRWQQGNVFSCSVMHEALHNHYTQKSLSLSPG light 1: QSALTQPASVSGSPGQSITISCTGTSSNIGTYKFVSWYQQHPDKAPKVLLYEVSKRPSGVSSRFSGSKSGNTASLTISGLQAEDQADYHCVSYAGSGTLLFGGGTKLTVLGQPKAAPSVTLFPPSSEELQANKATLVCLISDFYPGAVTVAWKADSSPVKAGVETTTPSKQSNNKYAASSYLSLTPEQWKSHRSYSCQVTHEGSTVEKTVAPTECS heavy 2: EVQLVESGGGLVQPGGSLRLSCTASGFIFSSYAMSWVRQAPGKGLEWVSAISGGYGAPYYADTVKGRFTISRDNSKNTLYLQMNSLRAEDTAVYYCAKDGVGATPYYFDDWGQGILVTVSSASTKGPSVFPLAPSSKSTSGGTAALGCLVKDYFPEPVTVSWNSGALTSGVHTFPAVLQSSGLYSLSSVVTVPSSSLGTQTYICNVNHKPSNTKVDKKVEPKSCDKTHTCPPCPAPEAAGGPSVFLFPPKPKDTLMISRTPEVTCVVVSVSHEDPEVKFNWYVDGVEVHNAKTKPREEQYNSTYRVVSVLTVLHQDWLNGKEYKCKVSNKALPAPIEKTISKAKGQPREPQVYTLPPSREEMTKNQVSLTCLVKGFYPSDIAVEWESNGQPENNYKTTPPVLDSDGSFFLYSRLTVDKSRWQQGNVFSCSVMHEALHNHYTQKSLSLSPG light 2: QSVLTQPPSVSAAPGQKVTISCSGSSSNIGNNYVSWYQQLPGTAPKLLIFDNNKRPSGIPDRFSGSKSGTSATLGITGLQTGDEADYYCGTWDSSLSAYVFGTGTKVTVLGQPKAAPSVTLFPPSSEELQANKATLVCLISDFYPGAVTVAWKADSSPVKAGVETTTPSKQSNNKYAASSYLSLTPEQWKSHRSYSCQVTHEGSTVEKTVAPTECS | 6.51e-11 | 4.73e-11
PS3B920 (bispecific antibody, human IgG1, lambda, L234A L235A) heavy 1: QVQLQQSGPRLVRPSQTLSLTCAISGDSVFNNNAAWSWIRQSPSRGLEWLGRTYYRSKWLYDYAVSVKSRITVNPDTSRNQFTLQLNSVTPEDTALYYCARGYSSSFDYWGQGTLVTVSSASTKGPSVFPLAPSSKSTSGGTAALGCLVKDYFPEPVTVSWNSGALTSGVHTFPAVLQSSGLYSLSSVVTVPSSSLGTQTYICNVNHKPSNTKVDKKVEPKSCDKTHTCPPCPAPEAAGGPSVFLFPPKPKDTLMISRTPEVTCVVVSVSHEDPEVKFNWYVDGVEVHNAKTKPREEQYNSTYRVVSVLTVLHQDWLNGKEYKCKVSNKALPAPIEKTISKAKGQPREPQVYTLPPSREEMTKNQVSLTCLVKGFYPSDIAVEWESNGQPENNYKTTPPVLDSDGSFLLYSKLTVDKSRWQQGNVFSCSVMHEALHNHYTQKSLSLSPG light 1: QSALTQPASVSGSPGQSITISCTGTSSNIGTYKFVSWYQQHPDKAPKVLLYEVSKRPSGVSSRFSGSKSGNTASLTISGLQAEDQADYHCVSYAGSGTLLFGGGTKLTVLGQPKAAPSVTLFPPSSEELQANKATLVCLISDFYPGAVTVAWKADSSPVKAGVETTTPSKQSNNKYAASSYLSLTPEQWKSHRSYSCQVTHEGSTVEKTVAPTECS heavy 2: EVQLVESGGGLVQPGGSLRLSCAASGFTFSSYAMSWVRQAPGKGLEWVSAISGGSGSTYYADSVKGRFTISRDNSKNTLYLQMNSLRAEDSAVYYCAKDGVGATPYYFDYWGQGTLVTVSSASTKGPSVFPLAPSSKSTSGGTAALGCLVKDYFPEPVTVSWNSGALTSGVHTFPAVLQSSGLYSLSSVVTVPSSSLGTQTYICNVNHKPSNTKVDKKVEPKSCDKTHTCPPCPAPEAAGGPSVFLFPPKPKDTLMISRTPEVTCVVVSVSHEDPEVKFNWYVDGVEVHNAKTKPREEQYNSTYRVVSVLTVLHQDWLNGKEYKCKVSNKALPAPIEKTISKAKGQPREPQVYTLPPSREEMTKNQVSLTCLVKGFYPSDIAVEWESNGQPENNYKTTPPVLDSDGSFFLYSRLTVDKSRWQQGNVFSCSVMHEALHNHYTQKSLSLSPG light 2: QSVLTQPPSVSAAPGQKVTISCSGSSSNIGNNYVSWYQQLPGTAPKLLIYDNNKRPSGIPDRFSGSKSGTSATLGITGLQTGDEADYYCGTWDSSLSAYVFGTGTKVTVLGQPKAAPSVTLFPPSSEELQANKATLVCLISDFYPGAVTVAWKADSSPVKAGVETTTPSKQSNNKYAASSYLSLTPEQWKSHRSYSCQVTHEGSTVEKTVAPTECS | 3.2e-09 | 1.77e-09
PS3B921 (bispecific antibody, human IgG1, lambda, L234A L235A) heavy 1: QVQLQQSGPRLVRPSQTLSLTCAISGDSVFNNNAAWSWIRQSPSRGLEWLGRTYYRSKWLYDYAVSVKSRITVNPDTSRNQFTLQLNSVTPEDTALYYCARGYSSSFDYWGQGTLVTVSSASTKGPSVFPLAPSSKSTSGGTAALGCLVKDYFPEPVTVSWNSGALTSGVHTFPAVLQSSGLYSLSSVVTVPSSSLGTQTYICNVNHKPSNTKVDKKVEPKSCDKTHTCPPCPAPEAAGGPSVFLFPPKPKDTLMISRTPEVTCVVVSVSHEDPEVKFNWYVDGVEVHNAKTKPREEQYNSTYRVVSVLTVLHQDWLNGKEYKCKVSNKALPAPIEKTISKAKGQPREPQVYTLPPSREEMTKNQVSLTCLVKGFYPSDIAVEWESNGQPENNYKTTPPVLDSDGSFLLYSKLTVDKSRWQQGNVFSCSVMHEALHNHYTQKSLSLSPG light 1: QSALTQPASVSGSPGQSITISCTGTSSNIGTYKFVSWYQQHPDKAPKVLLYEVSKRPSGVSSRFSGSKSGNTASLTISGLQAEDQADYHCVSYAGSGTLLFGGGTKLTVLGQPKAAPSVTLFPPSSEELQANKATLVCLISDFYPGAVTVAWKADSSPVKAGVETTTPSKQSNNKYAASSYLSLTPEQWKSHRSYSCQVTHEGSTVEKTVAPTECS heavy 2: EVQLVESGGGLVQPGGSLRLSCAASGFTFSSYAMSWVRQAPGKGLEWVSAISGGIGSTYYADSVKGRFTISRDNSKNTLWLQMNSLRAEDTAVYYCAKDGVGATPYYFDYWGQGTLVTVSSASTKGPSVFPLAPSSKSTSGGTAALGCLVKDYFPEPVTVSWNSGALTSGVHTFPAVLQSSGLYSLSSVVTVPSSSLGTQTYICNVNHKPSNTKVDKKVEPKSCDKTHTCPPCPAPEAAGGPSVFLFPPKPKDTLMISRTPEVTCVVVSVSHEDPEVKFNWYVDGVEVHNAKTKPREEQYNSTYRVVSVLTVLHQDWLNGKEYKCKVSNKALPAPIEKTISKAKGQPREPQVYTLPPSREEMTKNQVSLTCLVKGFYPSDIAVEWESNGQPENNYKTTPPVLDSDGSFFLYSRLTVDKSRWQQGNVFSCSVMHEALHNHYTQKSLSLSPG light 2: QSVLTQPPSVSAAPGQKVTISCSGSSSNIGINYVSWYQQLPGTAPKLLIYDNNKRPSGIPDRFSGSKSGTSATLGITGLQTGDEADYYCGTWDSSLSAVVFGGGTKLTVLGQPKAAPSVTLFPPSSEELQANKATLVCLISDFYPGAVTVAWKADSSPVKAGVETTTPSKQSNNKYAASSYLSLTPEQWKSHRSYSCQVTHEGSTVEKTVAPTECS | 3.11e-11 | 2.11e-11
